Reference: article PMC9482650, “Quantitative fragmentomics allow affinity mapping of interactomes” (Nature Communications, 2022)
Values belong to the binder of their own block, whether it stands above or below them.

What was measured:
Test in all cases: holdup assay
Set-up in all cases: key: below the threshold = too weak to quantify, mostly under pKd 3.1 to 4
[1] = target: T1, APBA1_2, Q02410
T1 sequence (Q02410 742-832, limits assumed, looked up): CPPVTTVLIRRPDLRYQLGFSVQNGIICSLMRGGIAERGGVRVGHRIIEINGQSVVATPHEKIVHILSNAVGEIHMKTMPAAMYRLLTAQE

[2] = target: T2, APBA3_1, O96018
T2 sequence (O96018 389-490, limits assumed, looked up): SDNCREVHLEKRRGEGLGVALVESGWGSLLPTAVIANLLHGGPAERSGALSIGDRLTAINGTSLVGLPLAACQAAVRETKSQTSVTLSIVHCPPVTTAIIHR

[3] = target: CASK, O14936
[4] = target: DLG1_3, Q12959
[5] = target: T3, DLG3_3, Q92796
T3 sequence (Q92796 374-475, limits assumed, looked up): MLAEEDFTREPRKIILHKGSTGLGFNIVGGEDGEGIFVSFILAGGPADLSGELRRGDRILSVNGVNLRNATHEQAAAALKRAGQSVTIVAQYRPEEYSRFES

[6] = target: DLG4_1, P78352
[7] = target: FRMPD2_3, Q68DX3
[8] = target: FRMPD3, Q5JV73
[9] = target: GOPC, Q9HD26
[10] = target: GRIP2_3, Q9C0E4
[11] = target: GRIP2_6, Q9C0E4
[12] = target: Inadl_4, Q8NI35
[13] = target: Inadl_8, Q8NI35
[14] = target: LAP2, Q96RT1
[15] = target: LIMK2, P53671
[16] = target: LNX1_1, Q8TBB1
[17] = target: T4, LNX2_3, Q8N448
T4 sequence (Q8N448 463-564, limits assumed, looked up): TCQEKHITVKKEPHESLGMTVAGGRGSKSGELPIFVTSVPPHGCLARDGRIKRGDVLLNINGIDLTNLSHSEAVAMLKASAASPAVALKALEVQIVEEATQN

[18] = target: T5, LRRC7, Q96NW7
T5 sequence (Q96NW7 1440-1537, limits assumed, looked up): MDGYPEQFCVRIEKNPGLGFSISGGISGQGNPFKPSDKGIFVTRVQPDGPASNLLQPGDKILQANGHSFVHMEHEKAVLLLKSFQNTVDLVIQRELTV

[19] = target: NHERF2_2, Q15599
[20] = target: T6, NHERF3_1, Q5T2W1
T6 sequence (Q5T2W1 4-100, limits assumed, looked up): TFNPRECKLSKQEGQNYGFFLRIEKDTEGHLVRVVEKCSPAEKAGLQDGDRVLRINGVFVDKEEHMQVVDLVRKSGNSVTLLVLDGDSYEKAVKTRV

[21] = target: T7, NHERF3_3, Q5T2W1
T7 sequence (Q5T2W1 238-333, limits assumed, looked up): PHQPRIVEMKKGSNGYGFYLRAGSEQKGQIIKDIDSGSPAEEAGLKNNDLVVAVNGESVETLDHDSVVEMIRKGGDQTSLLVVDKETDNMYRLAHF

[22] = target: NHERF4_2, Q86UT5
[23] = target: T8, PDZD7_3, Q9H5P4
T8 sequence (Q9H5P4 857-944, limits assumed, looked up): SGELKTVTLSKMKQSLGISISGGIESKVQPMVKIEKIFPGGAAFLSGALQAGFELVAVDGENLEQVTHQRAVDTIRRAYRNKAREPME

[24] = target: T9, RHPN1, Q8TCX5
T9 sequence (Q8TCX5 508-602, limits assumed, looked up): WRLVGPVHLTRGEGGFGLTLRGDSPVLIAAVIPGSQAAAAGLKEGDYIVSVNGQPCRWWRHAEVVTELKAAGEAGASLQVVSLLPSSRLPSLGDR

[25] = target: T10, SHANK1, Q9Y566
T10 sequence (Q9Y566 658-767, limits assumed, looked up): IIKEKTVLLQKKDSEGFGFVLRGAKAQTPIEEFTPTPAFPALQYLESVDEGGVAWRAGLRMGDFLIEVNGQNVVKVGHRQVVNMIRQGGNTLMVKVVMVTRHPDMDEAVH

[26] = target: TJP2_1, Q9UDY2
[27] = target: T11, TJP3_3, O95049
T11 sequence (O95049 375-456, limits assumed, looked up): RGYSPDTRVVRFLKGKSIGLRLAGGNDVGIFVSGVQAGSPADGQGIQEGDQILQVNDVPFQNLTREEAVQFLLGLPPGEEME

[28] = plain residues with an end cap or a label only (N-terminal biotin on a linker: ttds)
[29] = plain residues with an end cap or a label only (N-terminal biotin on a linker: ahx)

LIMK2, P53671, sequence (P53671 143-248): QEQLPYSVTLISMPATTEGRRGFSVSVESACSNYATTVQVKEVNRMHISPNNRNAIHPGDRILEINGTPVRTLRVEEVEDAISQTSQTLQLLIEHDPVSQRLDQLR
TJP2_1, Q9UDY2, sequence (Q9UDY2 24-128): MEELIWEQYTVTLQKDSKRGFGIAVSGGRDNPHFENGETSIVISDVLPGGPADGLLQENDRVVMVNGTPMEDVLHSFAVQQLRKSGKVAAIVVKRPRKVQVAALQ
DLG4_1, P78352, sequence (P78352 62-152): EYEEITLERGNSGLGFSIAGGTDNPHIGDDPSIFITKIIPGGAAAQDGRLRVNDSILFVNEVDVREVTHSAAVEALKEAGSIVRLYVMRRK
LNX1_1, Q8TBB1, sequence (Q8TBB1 261-371): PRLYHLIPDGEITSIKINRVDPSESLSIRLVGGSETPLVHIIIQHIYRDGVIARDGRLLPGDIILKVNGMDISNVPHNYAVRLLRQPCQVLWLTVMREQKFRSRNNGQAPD
GRIP2_6, Q9C0E4, sequence (Q9C0E4 648-740): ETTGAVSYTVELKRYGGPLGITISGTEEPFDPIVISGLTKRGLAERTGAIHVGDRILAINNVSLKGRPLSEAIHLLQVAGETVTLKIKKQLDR
FRMPD2_3, Q68DX3, sequence (Q68DX3 1073-1166): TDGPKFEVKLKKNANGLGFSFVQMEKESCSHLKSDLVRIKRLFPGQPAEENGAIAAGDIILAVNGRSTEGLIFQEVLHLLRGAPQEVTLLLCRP
CASK, O14936, sequence (O14936 487-570): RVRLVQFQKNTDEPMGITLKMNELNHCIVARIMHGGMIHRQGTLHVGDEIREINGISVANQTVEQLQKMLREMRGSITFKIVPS
GRIP2_3, Q9C0E4, sequence (Q9C0E4 238-339): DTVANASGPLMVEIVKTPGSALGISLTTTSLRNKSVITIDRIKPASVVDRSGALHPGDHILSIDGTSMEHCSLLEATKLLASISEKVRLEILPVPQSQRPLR
Inadl_8, Q8NI35, sequence (Q8NI35 1425-1530): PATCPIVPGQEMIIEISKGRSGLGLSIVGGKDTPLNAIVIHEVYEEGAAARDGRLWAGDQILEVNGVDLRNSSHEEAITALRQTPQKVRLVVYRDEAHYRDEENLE
FRMPD3, Q5JV73, sequence (Q5JV73 12-100): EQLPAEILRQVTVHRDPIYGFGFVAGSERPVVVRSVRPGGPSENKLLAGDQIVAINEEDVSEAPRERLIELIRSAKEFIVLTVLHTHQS
Inadl_4, Q8NI35, sequence (Q8NI35 547-651): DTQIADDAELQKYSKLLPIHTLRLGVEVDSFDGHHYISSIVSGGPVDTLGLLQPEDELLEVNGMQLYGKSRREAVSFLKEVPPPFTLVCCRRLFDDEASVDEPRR
NHERF4_2, Q86UT5, sequence (Q86UT5 220-308): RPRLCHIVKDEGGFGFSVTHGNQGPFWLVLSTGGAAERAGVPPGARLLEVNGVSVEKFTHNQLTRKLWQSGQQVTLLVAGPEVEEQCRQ
DLG1_3, Q12959, sequence (Q12959 457-571): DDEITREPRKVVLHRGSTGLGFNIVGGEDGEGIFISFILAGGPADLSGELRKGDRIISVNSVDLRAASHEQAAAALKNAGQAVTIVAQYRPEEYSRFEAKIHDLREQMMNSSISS
NHERF2_2, Q15599, sequence (Q15599 142-238): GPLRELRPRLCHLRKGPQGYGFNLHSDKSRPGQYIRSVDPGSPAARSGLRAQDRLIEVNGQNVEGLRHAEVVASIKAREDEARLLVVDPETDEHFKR
LAP2, Q96RT1, sequence (Q96RT1 other isoform, or with tags, fused parts or gaps): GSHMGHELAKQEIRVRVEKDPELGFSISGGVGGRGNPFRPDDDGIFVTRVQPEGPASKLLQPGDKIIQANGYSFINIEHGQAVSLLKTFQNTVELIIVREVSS

pKd [1, 28]: 3.93
pKd [2, 28]: 3.47
pKd [3, 28]: below the threshold
pKd [4, 28]: 4.08
pKd [5, 28]: 3.97
pKd [6, 28]: 4.06
pKd [7, 28]: below the threshold
pKd [8, 28]: 3.59
pKd [9, 28]: 4.13
pKd [10, 28]: below the threshold
pKd [11, 28]: below the threshold
pKd [12, 28]: below the threshold
pKd [13, 28]: below the threshold
pKd [14, 28]: 3.8
pKd [15, 28]: below the threshold
pKd [16, 28]: below the threshold
pKd [17, 28]: below the threshold
pKd [18, 28]: 3.58
pKd [19, 28]: 4.87
pKd [20, 28]: 5.24
pKd [21, 28]: below the threshold
pKd [22, 28]: below the threshold
pKd [23, 28]: 4.63
pKd [24, 28]: 4.75
pKd [25, 28]: 4.71
pKd [26, 28]: 3.49
pKd [27, 28]: below the threshold
B1: ATP2B1, P20020 (peptide)
chain: SPLHSLETSL

pKd [1, 29]: below the threshold
pKd [2, 29]: below the threshold
pKd [3, 29]: below the threshold
pKd [4, 29]: below the threshold
pKd [5, 29]: below the threshold
pKd [6, 29]: below the threshold
pKd [7, 29]: below the threshold
pKd [8, 29]: below the threshold
pKd [9, 29]: below the threshold
pKd [10, 29]: below the threshold
pKd [11, 29]: below the threshold
pKd [12, 29]: below the threshold
pKd [13, 29]: below the threshold
pKd [14, 29]: below the threshold
pKd [15, 29]: below the threshold
pKd [16, 29]: below the threshold
pKd [17, 29]: below the threshold
pKd [18, 29]: below the threshold
pKd [19, 29]: 4.25
pKd [20, 29]: below the threshold
pKd [21, 29]: below the threshold
pKd [22, 29]: below the threshold
pKd [23, 29]: below the threshold
pKd [24, 29]: 3.98
pKd [25, 29]: below the threshold
pKd [26, 29]: below the threshold
pKd [27, 29]: below the threshold
B2: NHERF3, Q5T2W1 (peptide)
chain: SSSNSEDTEM

pKd [1, 28]: 4.2
pKd [2, 28]: below the threshold
pKd [3, 28]: below the threshold
pKd [4, 28]: 4.12
pKd [5, 28]: 4.42
pKd [6, 28]: 4.72
pKd [7, 28]: 3.71
pKd [8, 28]: below the threshold
pKd [9, 28]: 3.86
pKd [10, 28]: below the threshold
pKd [11, 28]: below the threshold
pKd [12, 28]: below the threshold
pKd [13, 28]: below the threshold
pKd [14, 28]: 4.54
pKd [15, 28]: below the threshold
pKd [16, 28]: below the threshold
pKd [17, 28]: below the threshold
pKd [18, 28]: below the threshold
pKd [19, 28]: 4.01
pKd [20, 28]: 5.14
pKd [21, 28]: below the threshold
pKd [22, 28]: below the threshold
pKd [23, 28]: 4.32
pKd [24, 28]: 4.35
pKd [25, 28]: 4.3
pKd [26, 28]: below the threshold
pKd [27, 28]: below the threshold
B3: DGKZ, Q13574 (peptide)
chain: IQREDQETAV
